What was measured:
EDD1/UBR5 (human) [1] = target: EDD1/UBR5 (human) (UniProt O95071); assay: Flag co-IP, MudPIT MS, MG132
[2] = target: Retinoblastoma-associated factor 600, UBR4 (human) (UniProt Q5T4S7); assay: Flag co-IP, MudPIT MS, MG132
Elongin C (human) = Elongin C (human) (UniProt Q15369); assay: Flag co-IP, MudPIT MS, MG132
[3] = target: DNA damage-binding protein I. DDB1 (human) (UniProt Q16531); assay: Flag co-IP, MudPIT MS, MG132
[4] = target: Kelch-like protein 22. KLEIL22 (human) (UniProt Q53GT1); assay: Flag co-IP, MudPIT MS, DMSO
gp78 (human) [5] = target: gp78 (human) (UniProt Q9UKV5); assay: Flag co-IP, MudPIT MS, DMSO
[6] = target: Retinoblastoma-associated factor 600, UBR4 (human) (UniProt Q5T4S7); assay: Flag co-IP, MudPIT MS, DMSO
UBR1 (human) = UBR1 (human) (UniProt Q8IWV7); assay: Flag co-IP, MudPIT MS, DMSO
[7] = target: CUL3-interacting protein I. KLHL12 (human) (UniProt Q53G59); assay: Flag co-IP, MudPIT MS, DMSO
[8] = target: Baculoviral IAP repeat-containing protein 2, IAP2 (human) (UniProt Q13490); assay: Flag co-IP, MudPIT MS, DMSO
Cullin 3 (human) = Cullin 3 (human) (UniProt Q13618); assay: Flag co-IP, MudPIT MS, DMSO
UBR2 (human) [9] = target: UBR2 (human) (UniProt Q8IWV8); assay: Flag co-IP, MudPIT MS, DMSO
Praja 2 (human) = Praja 2 (human) (UniProt O43164); assay: Flag co-IP, MudPIT MS, DMSO
[10] = target: CUL4- and DDB I-associated WDR protein 2, WDR26 (human) (UniProt Q9H7D7); assay: Flag co-IP, MudPIT MS, DMSO
[11] = target: DNA damage-binding protein I. DDB1 (human) (UniProt Q16531); assay: Flag co-IP, MudPIT MS, DMSO
PLAP (human) = PLAP (human) (UniProt Q9Y263); assay: Flag co-IP, 293 cells, MudPIT MS
gp78 (human) [12] = target: gp78 (human) (UniProt Q9UKV5); assay: Flag co-IP, MudPIT MS, MG132
[13] = target: E3 ubiquitin-protein ligase1-HUWE1 (human) (UniProt Q7Z6Z7); assay: Flag co-IP, MudPIT MS, MG132
[14] = target: E6AP ubiquitin-protein ligase, UBE3A (human) (UniProt Q05086); assay: Flag co-IP, MudPIT MS, MG132
UBR2 (human) [15] = target: UBR2 (human) (UniProt Q8IWV8); assay: Flag co-IP, MudPIT MS, MG132
EDD1/UBR5 (human) [16] = target: EDD1/UBR5 (human) (UniProt O95071); assay: Flag co-IP, MudPIT MS, DMSO

Baculoviral IAP repeat-containing protein 2, IAP2 (human), sequence (Q13490 whole entry): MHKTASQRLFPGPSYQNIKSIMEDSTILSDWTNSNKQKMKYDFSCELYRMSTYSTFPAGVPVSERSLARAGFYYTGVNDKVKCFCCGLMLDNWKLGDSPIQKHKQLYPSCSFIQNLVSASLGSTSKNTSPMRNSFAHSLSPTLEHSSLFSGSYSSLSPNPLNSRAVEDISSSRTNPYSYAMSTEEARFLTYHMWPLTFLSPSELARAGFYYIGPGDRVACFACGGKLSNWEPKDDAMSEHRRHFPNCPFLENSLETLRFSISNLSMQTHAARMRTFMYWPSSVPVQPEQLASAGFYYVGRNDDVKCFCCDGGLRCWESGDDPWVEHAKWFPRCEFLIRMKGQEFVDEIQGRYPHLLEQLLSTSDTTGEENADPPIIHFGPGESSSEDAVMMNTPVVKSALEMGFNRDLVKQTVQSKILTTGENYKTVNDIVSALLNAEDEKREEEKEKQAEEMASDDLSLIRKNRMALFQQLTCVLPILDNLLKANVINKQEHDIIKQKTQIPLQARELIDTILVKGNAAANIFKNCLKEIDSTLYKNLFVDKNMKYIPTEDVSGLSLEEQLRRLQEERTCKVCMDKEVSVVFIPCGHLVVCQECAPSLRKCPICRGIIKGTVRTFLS
Kelch-like protein 22. KLEIL22 (human), sequence (Q53GT1 2-634 limits assumed): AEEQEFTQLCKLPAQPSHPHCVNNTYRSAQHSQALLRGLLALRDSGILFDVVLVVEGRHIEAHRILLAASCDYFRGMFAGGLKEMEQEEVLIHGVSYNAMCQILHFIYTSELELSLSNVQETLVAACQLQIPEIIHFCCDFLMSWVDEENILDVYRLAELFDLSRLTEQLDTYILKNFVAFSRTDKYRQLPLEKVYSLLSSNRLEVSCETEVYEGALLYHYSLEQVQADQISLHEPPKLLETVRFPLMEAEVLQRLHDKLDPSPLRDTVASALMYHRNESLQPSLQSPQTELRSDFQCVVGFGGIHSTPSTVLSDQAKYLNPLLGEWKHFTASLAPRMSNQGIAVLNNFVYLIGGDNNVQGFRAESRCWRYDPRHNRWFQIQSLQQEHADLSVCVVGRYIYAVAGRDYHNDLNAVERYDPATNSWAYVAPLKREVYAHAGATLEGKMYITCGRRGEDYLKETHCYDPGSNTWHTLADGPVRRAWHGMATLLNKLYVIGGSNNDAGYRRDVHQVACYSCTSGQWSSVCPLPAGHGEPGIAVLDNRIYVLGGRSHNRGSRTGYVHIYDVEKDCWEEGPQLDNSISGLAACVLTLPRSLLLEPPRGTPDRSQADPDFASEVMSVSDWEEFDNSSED
Cullin 3 (human), sequence (Q13618 2-768 limits assumed): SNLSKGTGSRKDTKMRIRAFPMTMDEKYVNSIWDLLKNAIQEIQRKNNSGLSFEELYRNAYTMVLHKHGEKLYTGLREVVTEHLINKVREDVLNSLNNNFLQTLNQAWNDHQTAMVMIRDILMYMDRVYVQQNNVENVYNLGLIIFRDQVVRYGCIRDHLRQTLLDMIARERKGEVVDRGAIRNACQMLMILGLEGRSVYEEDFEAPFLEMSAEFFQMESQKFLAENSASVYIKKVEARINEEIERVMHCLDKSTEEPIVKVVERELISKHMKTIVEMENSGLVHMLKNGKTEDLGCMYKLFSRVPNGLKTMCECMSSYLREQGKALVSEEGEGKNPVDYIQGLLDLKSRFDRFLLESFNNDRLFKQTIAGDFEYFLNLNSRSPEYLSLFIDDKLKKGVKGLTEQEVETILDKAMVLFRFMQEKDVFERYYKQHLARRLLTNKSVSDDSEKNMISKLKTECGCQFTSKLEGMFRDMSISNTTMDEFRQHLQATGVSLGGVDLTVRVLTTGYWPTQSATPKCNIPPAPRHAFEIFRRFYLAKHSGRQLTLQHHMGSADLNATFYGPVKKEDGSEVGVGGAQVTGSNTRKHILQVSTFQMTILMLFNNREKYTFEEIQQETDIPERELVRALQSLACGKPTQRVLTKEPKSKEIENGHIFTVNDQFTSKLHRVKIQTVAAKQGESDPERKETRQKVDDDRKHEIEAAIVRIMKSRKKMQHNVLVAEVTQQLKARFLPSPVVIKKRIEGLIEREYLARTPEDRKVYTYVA
EDD1/UBR5 (human), sequence (O95071 2-2799 limits assumed): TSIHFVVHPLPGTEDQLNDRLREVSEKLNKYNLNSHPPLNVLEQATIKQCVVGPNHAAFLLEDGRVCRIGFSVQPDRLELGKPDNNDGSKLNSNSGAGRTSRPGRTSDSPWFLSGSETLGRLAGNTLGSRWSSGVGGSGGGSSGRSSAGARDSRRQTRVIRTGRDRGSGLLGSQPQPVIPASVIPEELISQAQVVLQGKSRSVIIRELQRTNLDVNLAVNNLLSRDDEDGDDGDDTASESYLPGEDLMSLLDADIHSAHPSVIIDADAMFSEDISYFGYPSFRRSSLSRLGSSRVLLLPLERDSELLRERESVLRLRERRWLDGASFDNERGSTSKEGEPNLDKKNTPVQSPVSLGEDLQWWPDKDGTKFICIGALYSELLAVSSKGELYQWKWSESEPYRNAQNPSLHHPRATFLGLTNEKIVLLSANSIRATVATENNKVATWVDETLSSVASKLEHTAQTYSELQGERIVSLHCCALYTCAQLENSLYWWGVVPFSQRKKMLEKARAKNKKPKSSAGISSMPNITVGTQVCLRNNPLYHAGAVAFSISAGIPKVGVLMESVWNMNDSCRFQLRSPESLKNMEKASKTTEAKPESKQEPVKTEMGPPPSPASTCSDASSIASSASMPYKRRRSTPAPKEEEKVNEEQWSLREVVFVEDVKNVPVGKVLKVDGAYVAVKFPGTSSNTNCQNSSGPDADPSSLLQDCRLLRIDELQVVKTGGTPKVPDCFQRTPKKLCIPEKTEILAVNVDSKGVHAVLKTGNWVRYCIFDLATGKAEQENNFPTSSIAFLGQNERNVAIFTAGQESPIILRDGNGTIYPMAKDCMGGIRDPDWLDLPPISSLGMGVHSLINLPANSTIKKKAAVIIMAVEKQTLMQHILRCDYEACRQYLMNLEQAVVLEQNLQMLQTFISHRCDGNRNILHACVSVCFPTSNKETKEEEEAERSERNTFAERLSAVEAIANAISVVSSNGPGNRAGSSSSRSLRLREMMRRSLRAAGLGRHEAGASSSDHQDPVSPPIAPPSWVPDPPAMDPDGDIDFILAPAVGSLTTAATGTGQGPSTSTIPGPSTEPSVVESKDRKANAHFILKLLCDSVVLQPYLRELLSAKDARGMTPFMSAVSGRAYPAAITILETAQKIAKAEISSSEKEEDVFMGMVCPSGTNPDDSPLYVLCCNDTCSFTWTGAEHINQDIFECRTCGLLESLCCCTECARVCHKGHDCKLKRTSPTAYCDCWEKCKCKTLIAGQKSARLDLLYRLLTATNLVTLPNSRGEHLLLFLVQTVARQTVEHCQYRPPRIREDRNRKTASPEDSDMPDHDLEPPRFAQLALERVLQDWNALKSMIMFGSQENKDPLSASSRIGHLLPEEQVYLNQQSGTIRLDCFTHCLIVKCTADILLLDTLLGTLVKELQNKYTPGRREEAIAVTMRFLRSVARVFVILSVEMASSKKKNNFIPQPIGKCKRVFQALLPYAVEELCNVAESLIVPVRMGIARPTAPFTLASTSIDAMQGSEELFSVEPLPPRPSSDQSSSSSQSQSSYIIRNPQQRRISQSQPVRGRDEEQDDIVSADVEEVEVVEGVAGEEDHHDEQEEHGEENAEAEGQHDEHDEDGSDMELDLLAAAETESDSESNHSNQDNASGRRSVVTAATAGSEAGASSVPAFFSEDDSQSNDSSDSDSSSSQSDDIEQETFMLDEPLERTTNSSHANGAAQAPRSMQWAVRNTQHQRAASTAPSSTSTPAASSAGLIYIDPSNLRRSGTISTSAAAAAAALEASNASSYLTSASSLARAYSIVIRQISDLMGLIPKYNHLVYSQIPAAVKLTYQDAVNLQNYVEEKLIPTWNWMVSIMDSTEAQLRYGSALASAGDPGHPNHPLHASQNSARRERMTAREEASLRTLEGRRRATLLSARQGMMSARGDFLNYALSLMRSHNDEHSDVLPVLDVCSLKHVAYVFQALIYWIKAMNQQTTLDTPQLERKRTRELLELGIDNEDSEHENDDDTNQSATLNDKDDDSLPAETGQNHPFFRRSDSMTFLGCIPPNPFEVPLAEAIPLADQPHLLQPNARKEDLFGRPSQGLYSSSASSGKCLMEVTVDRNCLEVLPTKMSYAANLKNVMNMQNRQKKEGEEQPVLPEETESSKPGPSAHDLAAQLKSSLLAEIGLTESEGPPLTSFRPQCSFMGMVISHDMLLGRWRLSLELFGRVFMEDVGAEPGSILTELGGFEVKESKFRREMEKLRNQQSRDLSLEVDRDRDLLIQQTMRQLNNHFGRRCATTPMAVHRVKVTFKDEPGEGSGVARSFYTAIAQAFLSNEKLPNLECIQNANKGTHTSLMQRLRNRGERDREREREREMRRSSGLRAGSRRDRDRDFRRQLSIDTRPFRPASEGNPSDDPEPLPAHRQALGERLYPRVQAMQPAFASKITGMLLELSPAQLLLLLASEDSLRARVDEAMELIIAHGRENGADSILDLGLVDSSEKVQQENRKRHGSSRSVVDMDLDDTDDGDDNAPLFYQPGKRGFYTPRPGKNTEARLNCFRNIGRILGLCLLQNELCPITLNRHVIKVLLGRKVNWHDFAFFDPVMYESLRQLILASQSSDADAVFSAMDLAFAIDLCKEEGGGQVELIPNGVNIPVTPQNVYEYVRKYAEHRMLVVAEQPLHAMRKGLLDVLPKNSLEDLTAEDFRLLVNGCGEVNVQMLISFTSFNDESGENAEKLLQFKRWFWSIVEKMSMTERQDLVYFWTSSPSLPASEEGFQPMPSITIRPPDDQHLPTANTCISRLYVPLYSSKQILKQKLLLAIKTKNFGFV
Elongin C (human), sequence (Q15369 whole entry): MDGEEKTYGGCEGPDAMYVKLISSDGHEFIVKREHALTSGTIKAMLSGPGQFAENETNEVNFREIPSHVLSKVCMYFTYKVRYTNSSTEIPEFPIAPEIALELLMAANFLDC

Flag-UBXD7 (from UniProt O94888 1-489) was tested, and the abundance factor (AF) (EDD1/UBR5 (human) [1]) was 0.2, the sequence count (EDD1/UBR5 (human) [1]) was 2 and the spectrum count (EDD1/UBR5 (human) [1]) was 2. It also gave an abundance factor (AF) [2] of 2.1, a sequence count [2] of 41 and a spectrum count [2] of 49. For the same substance, the abundance factor (AF) (Elongin C (human)) was 20, the sequence count (Elongin C (human)) was 8 and the spectrum count (Elongin C (human)) was 10. For the same substance, the abundance factor (AF) [3] was 2.6, the sequence count [3] was 13 and the spectrum count [3] was 13. It also gave an abundance factor (AF) [4] of 6, a sequence count [4] of 3 and a spectrum count [4] of 3. It also gave an abundance factor (AF) (gp78 (human) [5]) of 5.9, a sequence count (gp78 (human) [5]) of 3 and a spectrum count (gp78 (human) [5]) of 3. The abundance factor (AF) [6] was 4.5, the sequence count [6] was 12 and the spectrum count [6] was 18. For the same substance, the abundance factor (AF) (UBR1 (human)) was 1.4, the sequence count (UBR1 (human)) was 2 and the spectrum count (UBR1 (human)) was 2. For the same substance, the abundance factor (AF) [7] was 18.1, the sequence count [7] was 6 and the spectrum count [7] was 8. It also gave an abundance factor (AF) [8] of 6.1, a sequence count [8] of 3 and a spectrum count [8] of 3. For the same substance, the abundance factor (AF) (Cullin 3 (human)) was 37, the sequence count (Cullin 3 (human)) was 13 and the spectrum count (Cullin 3 (human)) was 23. For the same substance, the abundance factor (AF) (UBR2 (human) [9]) was 2.1, the sequence count (UBR2 (human) [9]) was 2 and the spectrum count (UBR2 (human) [9]) was 3. For the same substance, the abundance factor (AF) (Praja 2 (human)) was 5.5, the sequence count (Praja 2 (human)) was 2 and the spectrum count (Praja 2 (human)) was 3. For the same substance, the abundance factor (AF) [10] was 46.4, the sequence count [10] was 12 and the spectrum count [10] was 19. It also gave an abundance factor (AF) [11] of 12.4, a sequence count [11] of 11 and a spectrum count [11] of 11. It also gave a sequence count (PLAP (human)) of 2, a sequence coverage (PLAP (human)) of 4% and a spectrum count (PLAP (human)) of 2.
With Flag-SAKS1 (from UniProt Q04323 1-297) the abundance factor (AF) (EDD1/UBR5 (human) [1]) was 2, the sequence count (EDD1/UBR5 (human) [1]) was 9 and the spectrum count (EDD1/UBR5 (human) [1]) was 14. For the same substance, the abundance factor (AF) (gp78 (human) [12]) was 3.6, the sequence count (gp78 (human) [12]) was 3 and the spectrum count (gp78 (human) [12]) was 6. The abundance factor (AF) [13] was 0.6, the sequence count [13] was 4 and the spectrum count [13] was 7. It also gave an abundance factor (AF) [2] of 5.7, a sequence count [2] of 30 and a spectrum count [2] of 74. It also gave an abundance factor (AF) [14] of 2.2, a sequence count [14] of 4 and a spectrum count [14] of 5. It also gave an abundance factor (AF) (UBR2 (human) [15]) of 1.3, a sequence count (UBR2 (human) [15]) of 3 and a spectrum count (UBR2 (human) [15]) of 6. For the same substance, the abundance factor (AF) [3] was 0.7, the sequence count [3] was 2 and the spectrum count [3] was 2. The abundance factor (AF) [4] was 2.3, the sequence count [4] was 2 and the spectrum count [4] was 2. It also gave an abundance factor (AF) (EDD1/UBR5 (human) [16]) of 2.6, a sequence count (EDD1/UBR5 (human) [16]) of 9 and a spectrum count (EDD1/UBR5 (human) [16]) of 10. The abundance factor (AF) (gp78 (human) [5]) was 3.3, the sequence count (gp78 (human) [5]) was 3 and the spectrum count (gp78 (human) [5]) was 3. It also gave an abundance factor (AF) [6] of 3.8, a sequence count [6] of 18 and a spectrum count [6] of 27. It also gave an abundance factor (AF) (UBR1 (human)) of 0.8, a sequence count (UBR1 (human)) of 2 and a spectrum count (UBR1 (human)) of 2. For the same substance, the abundance factor (AF) [7] was 6.4, the sequence count [7] was 2 and the spectrum count [7] was 5. For the same substance, the abundance factor (AF) [8] was 2.3, the sequence count [8] was 2 and the spectrum count [8] was 2. It also gave an abundance factor (AF) (Cullin 3 (human)) of 2.7, a sequence count (Cullin 3 (human)) of 3 and a spectrum count (Cullin 3 (human)) of 3. The abundance factor (AF) (UBR2 (human) [9]) was 2.8, the sequence count (UBR2 (human) [9]) was 5 and the spectrum count (UBR2 (human) [9]) was 7. It also gave an abundance factor (AF) (Praja 2 (human)) of 3.1, a sequence count (Praja 2 (human)) of 3 and a spectrum count (Praja 2 (human)) of 3. For the same substance, the abundance factor (AF) [11] was 1.3, the sequence count [11] was 2 and the spectrum count [11] was 2. The sequence count (PLAP (human)) was 26, the sequence coverage (PLAP (human)) was 32.1% and the spectrum count (PLAP (human)) was 90.
Flag-UBXD8 (from UniProt Q96CS3 1-445) showed an abundance factor (AF) (EDD1/UBR5 (human) [1]) of 0.8, a sequence count (EDD1/UBR5 (human) [1]) of 9 and a spectrum count (EDD1/UBR5 (human) [1]) of 10. For the same substance, the abundance factor (AF) (gp78 (human) [12]) was 1.9, the sequence count (gp78 (human) [12]) was 4 and the spectrum count (gp78 (human) [12]) was 6. It also gave an abundance factor (AF) [13] of 0.3, a sequence count [13] of 6 and a spectrum count [13] of 6. The abundance factor (AF) [2] was 0.3, the sequence count [2] was 6 and the spectrum count [2] was 6. It also gave an abundance factor (AF) [14] of 0.5, a sequence count [14] of 2 and a spectrum count [14] of 2. It also gave an abundance factor (AF) (UBR2 (human) [15]) of 0.2, a sequence count (UBR2 (human) [15]) of 2 and a spectrum count (UBR2 (human) [15]) of 2. The abundance factor (AF) (Elongin C (human)) was 5.7, the sequence count (Elongin C (human)) was 2 and the spectrum count (Elongin C (human)) was 3. It also gave an abundance factor (AF) [3] of 0.7, a sequence count [3] of 3 and a spectrum count [3] of 4. It also gave an abundance factor (AF) (EDD1/UBR5 (human) [16]) of 0.2, a sequence count (EDD1/UBR5 (human) [16]) of 3 and a spectrum count (EDD1/UBR5 (human) [16]) of 3. For the same substance, the abundance factor (AF) (gp78 (human) [5]) was 0.5, the sequence count (gp78 (human) [5]) was 2 and the spectrum count (gp78 (human) [5]) was 2. The abundance factor (AF) [6] was 0.2, the sequence count [6] was 3 and the spectrum count [6] was 5. The abundance factor (AF) (UBR1 (human)) was 0.3, the sequence count (UBR1 (human)) was 3 and the spectrum count (UBR1 (human)) was 3. For the same substance, the abundance factor (AF) (UBR2 (human) [9]) was 0.4, the sequence count (UBR2 (human) [9]) was 3 and the spectrum count (UBR2 (human) [9]) was 5. It also gave an abundance factor (AF) (Praja 2 (human)) of 0.7, a sequence count (Praja 2 (human)) of 3 and a spectrum count (Praja 2 (human)) of 3. The abundance factor (AF) [10] was 1.2, the sequence count [10] was 2 and the spectrum count [10] was 4. The abundance factor (AF) [11] was 0.3, the sequence count [11] was 2 and the spectrum count [11] was 2. For the same substance, the sequence count (PLAP (human)) was 10, the sequence coverage (PLAP (human)) was 20.1% and the spectrum count (PLAP (human)) was 15.

Source: patent publication US20090192084A1
